First the molecules themselves.
B1: P-EET-2 (designed binder)
chain: GCSHWLQEMFGFCKQDSDCLAGCVCEISETCG
modifications: not checked
B2: P-EET-6 (designed binder)
chain: GCFDDNPFIACKQDSDCLAGCVCWYDTWCG
modifications: not checked
B3: V-EET-1 (designed binder)
chain: GCTTPWVPHHIMCKQDSDCLAGCVCGPNGFCG
B4: V-EET-2 (designed binder)
chain: GCQTPWFPHQILCKQDSDCLAGCVCGPNGFCG
B5: V-MCH-1 (designed binder)
chain: GCAGKSCKKWSSVHCDAGCFCQIGQQVVYIPGCV
B6: V-AMP-1 (designed binder)
chain: VGECSQPWFINMCNMVDCCSQFGYCGKGPKYCG
B7: V-EET-3 (designed binder)
chain: GCMTPWFPFTINCKQDSDCLAGCVCGPNGFCG

Experimental findings from publication PMC10977726 are described below.

One experiment concerns the target T1, biotin-PDGF-bb (human), P01127.
T1 chain: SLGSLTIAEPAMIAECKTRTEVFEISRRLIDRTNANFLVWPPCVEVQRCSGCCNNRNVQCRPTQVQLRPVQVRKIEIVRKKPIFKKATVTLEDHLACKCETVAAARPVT
Description: SPR; […]; Biacore S200, […] (PBS with 0.05% Tween 20, pH 7.4); […]. (SPR reads the build-up and loss of mass on a sensor chip optically.)
The Kd is a measure of binding affinity in units of concentration. In turn, B1 displayed a Kd of more than 20 µM. B2 had a Kd of more than 6.7 µM.

A further experiment deals with biotin-VEGF-A (8-109) (human). The description is as above.
Sequence of biotin-VEGF-A (8-109) (human) (P15692 whole entry): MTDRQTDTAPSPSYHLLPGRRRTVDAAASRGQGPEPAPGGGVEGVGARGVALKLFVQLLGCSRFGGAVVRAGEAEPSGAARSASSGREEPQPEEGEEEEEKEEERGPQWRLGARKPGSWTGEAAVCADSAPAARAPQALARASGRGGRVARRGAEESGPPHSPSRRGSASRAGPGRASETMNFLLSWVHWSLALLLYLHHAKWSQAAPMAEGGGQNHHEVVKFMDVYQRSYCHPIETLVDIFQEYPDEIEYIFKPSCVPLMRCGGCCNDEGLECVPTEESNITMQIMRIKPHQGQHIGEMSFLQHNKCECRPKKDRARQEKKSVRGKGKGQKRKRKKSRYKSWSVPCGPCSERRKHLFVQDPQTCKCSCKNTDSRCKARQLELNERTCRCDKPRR
In turn, B3 gave a dissociation constant Kd of more than 20 µM. Molecule B4 displayed a Kd of more than 30 µM. The same measure, in the same setting: to B5 belongs more than 50 µM; to B6, more than 3.6 µM; to B7, more than 1.5 µM.
